Experiments:
Test in all cases: FACS, mutant-EGFP on HEK293F cells
[1] = molecular target: T1, KW27-11 (human CD39 mutant, C-terminal EGFP) (human, UniProt P49961 1-510)
T1 construct: expressed on HEK293F cells; 'D3565' as printed is read as D356S; not shown: C-terminal EGFP fusion (vector pCMV3-GFPSpark)
T1 chain: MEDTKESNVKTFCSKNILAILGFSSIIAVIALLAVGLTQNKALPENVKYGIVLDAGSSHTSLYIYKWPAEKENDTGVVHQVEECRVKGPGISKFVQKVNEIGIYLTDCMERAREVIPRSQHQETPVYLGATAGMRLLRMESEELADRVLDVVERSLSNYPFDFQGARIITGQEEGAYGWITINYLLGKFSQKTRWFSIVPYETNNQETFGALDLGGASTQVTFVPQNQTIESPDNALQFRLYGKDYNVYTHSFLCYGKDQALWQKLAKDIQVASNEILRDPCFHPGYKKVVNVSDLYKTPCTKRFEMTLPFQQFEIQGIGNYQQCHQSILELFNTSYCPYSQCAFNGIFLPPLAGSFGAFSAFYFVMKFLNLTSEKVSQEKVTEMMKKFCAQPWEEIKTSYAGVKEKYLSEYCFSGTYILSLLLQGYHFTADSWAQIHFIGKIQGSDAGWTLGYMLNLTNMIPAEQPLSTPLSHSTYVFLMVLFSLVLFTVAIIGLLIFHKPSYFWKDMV
Summary of the method: (§1)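 Relative binding, the ratio of AlexaFluor647 to GFP signal, was read by flow cytometry with labelled anti-hIgG. Antibody ran as an 11-point, 3-fold series starting at 100 nM. Targets were CD39 mutant–GFP fusions expressed transiently in HEK293F cells for 3 days.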

[2] = molecular target: T2, KW27-7 (human CD39 mutant, C-terminal EGFP) (human, UniProt P49961 1-510)
T2 construct: expressed on HEK293F cells; K188R and residues 190-206 substituted by KTPGGS; not shown: C-terminal EGFP fusion (vector pCMV3-GFPSpark)
T2 chain: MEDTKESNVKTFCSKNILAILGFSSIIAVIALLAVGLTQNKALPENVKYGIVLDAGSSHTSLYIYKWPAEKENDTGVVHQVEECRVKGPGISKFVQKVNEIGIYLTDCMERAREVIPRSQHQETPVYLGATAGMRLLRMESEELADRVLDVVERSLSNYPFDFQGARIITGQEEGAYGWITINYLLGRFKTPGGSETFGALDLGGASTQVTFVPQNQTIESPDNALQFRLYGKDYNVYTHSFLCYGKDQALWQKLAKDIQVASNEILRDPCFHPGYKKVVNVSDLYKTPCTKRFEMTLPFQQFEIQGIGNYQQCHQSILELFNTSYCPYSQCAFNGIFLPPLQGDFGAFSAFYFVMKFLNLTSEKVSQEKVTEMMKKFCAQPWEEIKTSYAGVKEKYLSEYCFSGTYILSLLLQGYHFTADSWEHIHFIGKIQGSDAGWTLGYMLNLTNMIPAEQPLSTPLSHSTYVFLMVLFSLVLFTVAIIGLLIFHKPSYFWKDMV
Summary of the method: as §1

[3] = molecular target: T3, KW27-19 (human CD39 mutant, C-terminal EGFP) (human, UniProt P49961 1-510)
T3 construct: expressed on HEK293F cells; not shown: C-terminal EGFP fusion (vector pCMV3-GFPSpark)
T3 chain: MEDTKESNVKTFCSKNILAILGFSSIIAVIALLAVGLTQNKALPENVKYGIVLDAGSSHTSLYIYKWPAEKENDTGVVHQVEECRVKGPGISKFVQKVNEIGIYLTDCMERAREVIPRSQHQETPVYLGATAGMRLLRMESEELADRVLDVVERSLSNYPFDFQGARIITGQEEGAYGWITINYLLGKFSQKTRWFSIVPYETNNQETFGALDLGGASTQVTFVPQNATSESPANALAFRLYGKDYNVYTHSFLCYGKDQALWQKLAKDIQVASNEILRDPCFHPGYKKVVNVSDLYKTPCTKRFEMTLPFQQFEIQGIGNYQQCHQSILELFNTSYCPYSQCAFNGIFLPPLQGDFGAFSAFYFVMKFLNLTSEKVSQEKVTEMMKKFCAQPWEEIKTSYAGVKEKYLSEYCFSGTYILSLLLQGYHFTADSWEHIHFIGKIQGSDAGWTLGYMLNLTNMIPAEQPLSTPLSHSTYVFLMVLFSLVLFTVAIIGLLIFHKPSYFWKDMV
Summary of the method: as §1

[4] = molecular target: T4, KW27-10 (human CD39 mutant, C-terminal EGFP) (human, UniProt P49961 1-510)
T4 construct: expressed on HEK293F cells; not shown: C-terminal EGFP fusion (vector pCMV3-GFPSpark)
T4 chain: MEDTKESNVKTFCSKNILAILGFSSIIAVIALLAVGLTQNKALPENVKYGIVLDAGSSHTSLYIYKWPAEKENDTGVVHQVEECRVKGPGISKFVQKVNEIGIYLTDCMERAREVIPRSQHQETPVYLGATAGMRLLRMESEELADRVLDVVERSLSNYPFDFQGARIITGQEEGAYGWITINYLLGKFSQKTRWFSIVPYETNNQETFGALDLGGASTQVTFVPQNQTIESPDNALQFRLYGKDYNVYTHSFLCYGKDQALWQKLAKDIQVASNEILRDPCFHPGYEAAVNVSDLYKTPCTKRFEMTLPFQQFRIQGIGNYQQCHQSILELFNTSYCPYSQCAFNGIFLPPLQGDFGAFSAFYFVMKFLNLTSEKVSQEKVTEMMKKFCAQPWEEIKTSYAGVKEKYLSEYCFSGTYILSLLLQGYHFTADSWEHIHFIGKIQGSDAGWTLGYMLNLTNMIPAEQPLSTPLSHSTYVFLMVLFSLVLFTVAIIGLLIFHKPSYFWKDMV
Summary of the method: as §1

Measured: binding result

B1: Antibody T895 (antibody, V domains shown)
VH: EVQLQQSGPELVKPGASVKMSCKASGYTFTDYNMHWVKQSHGRTLEWIGYIVPLNGGSTFNQKFKGRATLTVNTSSRTAYMELRSLTSEDSAAYYCARGGTRFAYWGQGTLVTVSA
VL: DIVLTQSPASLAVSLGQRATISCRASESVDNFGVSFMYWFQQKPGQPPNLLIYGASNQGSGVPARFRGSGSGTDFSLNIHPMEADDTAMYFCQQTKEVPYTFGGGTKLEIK
notes: also called 31895
binds: all assays above

B2: c35 (antibody, V domains shown)
VH: EVRLQQSGAELVKPGASVKLSCTASGFNIEDTYVHWMKQRPEQGLEWIGRIDPAIDNSKYDPKFQGKATITAVSSSNTAYLQLSSLTSEDTAVYYCALYDGYNVYAMDYWGQGTSVTVSS
VL: DIVMTQAAFSNPVTLGTSASISCRSSKNLLHSNGITYLYWYLQRPGQSPQLLIYRASTLASGVPNRFSGSESGTDFTLRISRVEAEDVGVYYCAQLLELPHTFGGGTKLEIK
notes: its making is not described; also called chimeric antibody c35
binds: all assays above

B3: Antibody 9-8B (antibody, V domains shown)
VH: QIQLVQSGPELKKPGETVKISCKASGYTFTHYGMNWVKQAPGKGLKWMGWINTYTGELTYADDFKGRFAFSLETSASTAYLQINNLKNEDTATYFCARRAYYRYDYVMDYWGQGTSVTVSS
VL: DIVMTQSQKFMSTSVGDRVSVTCKASHNVGTNVAWYQQKPGQSPKALIYSASYRYSGVPGRFTGSGSGTDFTLTISNVQSEDLAEYFCHQYNNYPYTFGGGTKLEIK
binds: all assays above

B4: hu23.H5L5 (antibody, V domains shown)
VH: QVQLVQSGAEVKKPGASVKVSCKASGYNLKDTFLHWVRQAPGQGLEWMGRIDPANGNIKYDPKFQGRVTITADTSANTAYMELISLRSEDTAVYYCANSPYYYGSGYRIFDVWGQGTTVTVSS
VL: QIVLTQSPATLSLSPGERATLSCSAFSSVNYMHWYQQKPGQAPRLLIYTTSNLASGIPTRFSGSGSGTSYTLTISSLEPEDFAVYYCQQRSTYPFTFGQGTKLEIK
notes: humanized c23
binds: all assays above

B5: c34 (antibody, V domains shown)
VH: EIQVQQSGPELVKPGASVKVSCKASGYSFTDYNMYWVKQSHGKSLEWIGFIDPYNGYTSYNQKFKGKATLTIDKSSSTAFMHLNSLTSEDSAVYYCAIYGYDDAYYFDYWGQGTTLTVSS
VL: QIVLTQSPAIMSASPGEKVTITCSATSSVSYMHWFRQKPGTSPKLWIYSTSNLASGVPARFSGSGSGTSYSLTISRMAAEDAATYYCQQRITYPFTFGSGTKLEIT
notes: its making is not described; also called chimeric antibody c34
binds: all assays above

Source: patent US20210388105A1 (ELPISCIENCE SUZHOU BIOPHARMA, published 2021)
